Assay [1] deals with human CI-M6PR on K562 cells (human) (UniProt P11717). The assay is described as follows: flow cytometry, cell surface stain, M6PR-KO K562 cells, Alexa 647. (Flow cytometry measures light scatter and fluorescence of single cells or particles in a stream.)
Assay [2] has the same target. As to the kind of experiment: flow cytometry, cell surface stain, wild type K562 cells, Alexa 647.
The target is the same in assay [3]. The assay is described as follows: flow cytometry dot plot, cell surface stain, M6PR-KO K562 cells [Cont. 2].
The target is the same in assay [4]. The assay is described as follows: flow cytometry dot plot, intracellular stain, M6PR-KO K562 cells [Cont. 2].
The target is the same in assay [5]. The assay is described as follows: flow cytometry dot plot, cell surface stain, wild type K562 cells [Cont. 1].
The target is the same in assay [6]. As to the kind of experiment: flow cytometry dot plot, intracellular stain, wild type K562 cells [Cont. 1].
The target is the same in assay [7]. The assay is described as follows: flow cytometry, intracellular stain (fixed, permeabilized), M6PR-KO K562 cells, Alexa 647.
The target is the same in assay [8]. As to the kind of experiment: flow cytometry, intracellular stain (fixed, permeabilized), wild type K562 cells, Alexa 647.
Assay [9] shares this target. As to the kind of experiment: cell-based or functional assay.

The values that follow come from US20260055194A1.

Sequence of human CI-M6PR on K562 cells (human) (P11717 41-2491): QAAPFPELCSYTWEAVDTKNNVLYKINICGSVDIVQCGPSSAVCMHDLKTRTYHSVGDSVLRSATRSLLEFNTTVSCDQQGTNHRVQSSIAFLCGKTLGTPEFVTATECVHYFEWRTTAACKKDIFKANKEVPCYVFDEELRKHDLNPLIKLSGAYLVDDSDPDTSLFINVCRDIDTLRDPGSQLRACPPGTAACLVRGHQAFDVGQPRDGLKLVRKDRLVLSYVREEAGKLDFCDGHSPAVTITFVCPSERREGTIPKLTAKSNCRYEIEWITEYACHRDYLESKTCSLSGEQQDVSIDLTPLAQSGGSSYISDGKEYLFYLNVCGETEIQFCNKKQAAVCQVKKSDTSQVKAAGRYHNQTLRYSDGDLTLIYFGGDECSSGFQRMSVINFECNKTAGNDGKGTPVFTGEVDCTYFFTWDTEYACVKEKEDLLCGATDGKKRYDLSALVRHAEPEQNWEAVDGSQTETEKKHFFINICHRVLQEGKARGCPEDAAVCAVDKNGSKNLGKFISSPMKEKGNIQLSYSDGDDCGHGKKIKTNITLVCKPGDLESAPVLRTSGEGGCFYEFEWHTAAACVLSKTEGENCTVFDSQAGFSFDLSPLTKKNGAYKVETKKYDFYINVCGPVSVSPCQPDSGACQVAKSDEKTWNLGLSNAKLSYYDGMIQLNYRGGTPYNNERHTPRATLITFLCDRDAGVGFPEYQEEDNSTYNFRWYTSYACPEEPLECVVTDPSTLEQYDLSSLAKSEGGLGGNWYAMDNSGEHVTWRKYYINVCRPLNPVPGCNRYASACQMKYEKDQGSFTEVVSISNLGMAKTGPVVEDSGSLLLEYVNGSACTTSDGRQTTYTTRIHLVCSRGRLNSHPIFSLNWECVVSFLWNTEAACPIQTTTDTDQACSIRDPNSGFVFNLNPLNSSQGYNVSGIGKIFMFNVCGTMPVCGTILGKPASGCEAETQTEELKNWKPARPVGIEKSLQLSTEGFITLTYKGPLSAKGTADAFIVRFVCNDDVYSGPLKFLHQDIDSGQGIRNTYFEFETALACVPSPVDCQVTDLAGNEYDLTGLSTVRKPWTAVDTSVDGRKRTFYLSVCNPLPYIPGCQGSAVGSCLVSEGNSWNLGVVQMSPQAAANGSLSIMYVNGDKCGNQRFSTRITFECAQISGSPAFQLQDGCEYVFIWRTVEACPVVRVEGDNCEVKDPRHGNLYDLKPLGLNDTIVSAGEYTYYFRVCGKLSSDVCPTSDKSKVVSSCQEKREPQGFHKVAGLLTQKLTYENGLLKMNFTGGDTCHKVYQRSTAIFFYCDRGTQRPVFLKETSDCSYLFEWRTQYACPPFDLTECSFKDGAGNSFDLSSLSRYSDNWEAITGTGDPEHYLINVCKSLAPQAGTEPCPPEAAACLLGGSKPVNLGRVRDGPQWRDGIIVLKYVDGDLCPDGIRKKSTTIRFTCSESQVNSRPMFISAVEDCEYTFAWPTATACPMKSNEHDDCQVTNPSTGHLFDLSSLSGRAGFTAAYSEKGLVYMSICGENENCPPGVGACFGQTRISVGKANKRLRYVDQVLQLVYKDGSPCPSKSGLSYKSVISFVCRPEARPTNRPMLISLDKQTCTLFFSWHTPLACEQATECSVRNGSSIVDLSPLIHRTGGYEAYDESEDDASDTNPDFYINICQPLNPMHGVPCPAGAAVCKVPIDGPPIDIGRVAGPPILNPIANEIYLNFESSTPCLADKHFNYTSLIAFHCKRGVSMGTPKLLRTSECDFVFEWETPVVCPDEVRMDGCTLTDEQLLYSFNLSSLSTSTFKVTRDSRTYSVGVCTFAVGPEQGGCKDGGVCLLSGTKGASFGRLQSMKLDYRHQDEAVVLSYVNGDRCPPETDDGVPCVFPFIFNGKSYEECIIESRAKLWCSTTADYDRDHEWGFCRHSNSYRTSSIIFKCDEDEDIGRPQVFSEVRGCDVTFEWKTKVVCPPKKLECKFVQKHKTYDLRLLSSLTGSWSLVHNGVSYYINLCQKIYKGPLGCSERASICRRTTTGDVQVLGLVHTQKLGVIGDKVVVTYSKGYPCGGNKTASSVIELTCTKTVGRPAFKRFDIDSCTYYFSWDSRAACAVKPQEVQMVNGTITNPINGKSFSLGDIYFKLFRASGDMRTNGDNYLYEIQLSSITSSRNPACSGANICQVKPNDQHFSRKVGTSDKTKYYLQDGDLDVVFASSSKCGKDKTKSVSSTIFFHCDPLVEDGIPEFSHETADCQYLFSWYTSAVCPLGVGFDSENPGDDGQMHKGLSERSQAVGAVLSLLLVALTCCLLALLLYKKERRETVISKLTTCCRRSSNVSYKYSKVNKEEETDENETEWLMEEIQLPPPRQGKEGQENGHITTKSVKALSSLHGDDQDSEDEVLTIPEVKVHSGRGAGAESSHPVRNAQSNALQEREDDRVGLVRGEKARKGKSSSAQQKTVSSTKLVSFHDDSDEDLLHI
Sequence of KLH-IGF2 (P01344 25-91): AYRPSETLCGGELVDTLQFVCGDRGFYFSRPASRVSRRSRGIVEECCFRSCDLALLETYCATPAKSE

As for IgG1-647 (antibody), the Median : FL18-A on M6PR-KO K562 cells (target knocked out, control) came out at 14.9 in assay [1] and 35.3 in assay [7]. The values for the Median : FL18-A in assay [2] and in [8] were 15.7 and 48.4, respectively. Also, the Q1 on M6PR-KO K562 cells (target knocked out, control) in assay [3] worked out at 1.47%; in assay [4], 0.39%. For the same substance, the Q1 (events above the Alexa 647 gate, below the FITC gate) came out at 0.39 in [5] and 0.48 in [6].
In the case of KLH-IGF2 (from UniProt P01344 25-91), the Uptake pHrodo (MFI) in assay [9] was found to be 210000 MFI.
For the substance MEM-238-647 (antibody), the figures for the Median : FL18-A on M6PR-KO K562 cells (target knocked out, control) in [1] and in assay [7] were 27.7 and 220, respectively. Moreover, the results for the Median : FL18-A in assay [2] and in [8] were 1280 and 3630, respectively. Further, the Q1 on M6PR-KO K562 cells (target knocked out, control) amounted to 13.1% in assay [3] and 86.8% in [4]. Also, the Q1 (events above the Alexa 647 gate, below the FITC gate) in assay [5] was 99.2; in [6], 99.5.
